The values below come from the Immune Epitope Database (IEDB).

This test deals with HLA-A*02:01. Description: IEDB peptide-MHC binding, purified MHC/direct/fluorescence; filed as Kd, often an IC50 or EC50 that approximates it; ≥ and ≤ were set here for values at or beyond the usual limits of such assays. Conditions: source organism: Human immunodeficiency virus 1.

In general, Kd refers to the constant that tells how readily two partners part at equilibrium. Read a low Kd as tighter binding.

Sequence SLYNTIAIL registered a dissociation constant (Kd) of 500 nM. This lies in the sub-micromolar range.

For the sequence SLFNAVVTL, the Kd was found to be 10 nM.

SLYNAVVTL yielded an equilibrium dissociation constant (Kd) of 10 nM.

For SLYNAVATL, the Kd is 45 nM.

Sequence SLYNLVAVL displayed a dissociation constant (Kd) of 724 nM. This Kd lies about 16-fold higher than the previous one.

Sequence SLYNTISVL returned an equilibrium dissociation constant (Kd) of 61 nM.

In the case of SLFNTVATV, the Kd turned out to be 25 nM.

In turn, SLFNTVVTL had a Kd of 32 nM. The Kd values of the last two sequences are within 1.5-fold of each other.

SLYNTVSTL came in with a Kd of 181 nM.

Sequence SVYNTVATL displayed a Kd of 283 nM.

In the case of SLYNTVVTL, the dissociation constant (Kd) worked out at 20 nM.

The sequence SLYNTITVL registered a Kd of 88 nM.
